For experiment [1], the target named is B7H3 on H358 tumor cells (UniProt Q5ZPR3). Kind of experiment: FACS on H358 cells, 1 h on ice, fluorescence-labelled anti-human Fc.
The target is the same in experiment [2]. Kind of experiment: flow cytometry on H358 cells, His-tag antibody iFluor 488 detection, four parameter logistic model. (In general: A flow cytometer gives signals particle by particle.)
For experiment [3] the target is unchanged. Kind of experiment: flow cytometry on H358 cells, His-tag antibody iFluor 488 detection; MFImax of the four parameter fit.

B7H3 on H358 tumor cells, sequence (Q5ZPR3 29-534): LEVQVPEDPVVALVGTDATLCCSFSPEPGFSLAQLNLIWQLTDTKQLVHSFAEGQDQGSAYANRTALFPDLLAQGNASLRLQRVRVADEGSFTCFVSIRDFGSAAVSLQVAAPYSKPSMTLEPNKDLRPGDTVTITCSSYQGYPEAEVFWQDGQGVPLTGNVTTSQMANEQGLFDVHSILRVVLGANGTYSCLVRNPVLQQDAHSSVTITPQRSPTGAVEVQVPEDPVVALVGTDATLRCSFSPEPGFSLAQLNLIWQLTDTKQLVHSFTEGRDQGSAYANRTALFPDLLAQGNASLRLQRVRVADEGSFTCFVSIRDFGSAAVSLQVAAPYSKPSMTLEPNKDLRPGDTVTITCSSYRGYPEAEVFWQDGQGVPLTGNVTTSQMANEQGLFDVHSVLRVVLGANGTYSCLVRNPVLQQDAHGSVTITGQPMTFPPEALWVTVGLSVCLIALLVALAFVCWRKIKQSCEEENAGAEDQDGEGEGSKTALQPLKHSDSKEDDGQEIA

B1: BGA-6938 in wildtype IgG1/kappa format (antibody, V domains shown)
VH: QVQLQESGPGLVKPSGTLSLTCAVSGGSISTSNYWNWVRQSPGKGLEWIGEIYPTGNTNYSPSLKSRVTISIDKSKNQFSLKLNSVTAADTAVYYCARGYNWFDPWGQGTLVTVSS
VL: EIVLTQSPGTLSLSPGERATLSCRTSQSINAILLAWYQQKPGQAPRLLIYGASSRATGIPDRFSGSGSGTDFTLSISRLEPEDFAVYYCQQYGSSPRTFGQGTKVEIKR
As for B1, in the experiment with B7H3 on H358 tumor cells [1], the EC50 (read off the curve) stood at 0.5 nM. This counts as sub-nanomolar.

B2: scFv of BGA-6938 VL-VH (scFv)
scFv: EIVLTQSPGTLSLSPGERATLSCRTSQSINAILLAWYQQKPGQAPRLLIYGASSRATGIPDRFSGSGSGTDFTLSISRLEPEDFAVYYCQQYGSSPRTFGQGTKVEIKGGGGSGGGGSGGGGSGGGGSQVQLQESGPGLVKPSGTLSLTCAVSGGSISTSNYWNWVRQSPGKGLEWIGEIYPTGNTNYSPSLKSRVTISIDKSKNQFSLKLNSVTAADTAVYYCARGYNWFDPWGQGTLVTVSSHHHHHH
Take B2: the EC50 with B7H3 on H358 tumor cells [2] came to 2.05 nM. In the experiment with B7H3 on H358 tumor cells [3], this molecule yielded an MFI of 782000.

As usually defined, the EC50 (read off the curve) is the midpoint of the concentration-response curve. As a reminder, the EC50 is the concentration needed to bring the measured effect to its halfway point. Low values mean a more potent agent, high ones a less potent agent.

The values above are taken from patent publication US20260116980A1.
